Measured values reported in patent US6693184B1, “DNA molecules encoding splice variants of the human melanocortin 1 receptor protein” (Merck & Co., Inc., priority 1998, dated 2004).

target: human MC-R1B receptor (splice variant of the human melanocortin-1 receptor, 382 amino acids) (human); experiment: displacement of 200 pM [125I]-NDP-αMSH from crude membranes of COS-7 cells expressing human MC-R1B; settings: not given

IC50 [nM]	Molecule
0.2	MT-II (peptide)
0.7	NDP-αMSH (unlabelled) (peptide)
0.7	SHU-9119 (peptide)
5	SYSMEHFRWGKPV (peptide, UniProt P01189 138-150, looked up) [αMSH]
5	SYSMEHFRWGKPVGKKRRPVKVYPNGAEDESAEAFPLEF (peptide, UniProt P01189 138-176, looked up) [ACTH]

target: human MC-R1B receptor (splice variant of the human melanocortin-1 receptor, 382 amino acids) (human); experiment: cell-based or functional assay; settings: not given

intracellular cAMP formation in COS-7 cells transiently expressing MC-R1B [fold]	Molecule
3	MT-II (peptide)
3	NDP-αMSH (unlabelled) (peptide)
3	SHU-9119 (peptide)
3	βMSH (from UniProt P01189 213-234) (peptide)
3	γMSH (from UniProt P01189 77-88) (peptide)
3	SYSMEHFRWGKPV (peptide, UniProt P01189 138-150, looked up) [αMSH]

target: human MC-R1B receptor (splice variant of the human melanocortin-1 receptor, 382 amino acids) (human); experiment: radioligand binding, membranes of COS-7 cells expressing MC-R1B; settings: not given

specific binding (percent of total binding) (% of total binding)	Molecule
> 90	[125I]-NDP-αMSH (peptide)

system: MC-1RB; experiment: cAMP functional receptor assay in COS-7 cells transfected with MC-1RB expression plasmids; assay type: cell-based, human; settings: COS-7 cells transiently expressing MC-R1B
Procedure: cAMP Functional Receptor Assay—Receptor-mediated stimulation of cyclic AMP (cAMP) formation was assayed in COS-7 cells transfected with MC-1RB expression plasmids. Cells expressing MC-1RB were dissociated from tissue culture flasks by rinsing with Ca and Mg free phosphate buffered saline (Life Technologies, Gaithersburg, Md.) and detached following 5 min. incubation with enzyme-free dissociation buffer (Specialty Media, Lavellette, N.J.). Cells were collected by centrifugation and resuspended in Earle's Balanced Salt Solution (EBSS) (Life Technologies, Gaithersburg, Md.) with additions of 10 mM HEPES pH 7.5, 5 mM MgCl2, 1 mM glutamine and 1 mg/ml bovine serum albumin. Cells are counted and diluted to 2 to 4×10^6/ml. The phosphodiesterace inhibitor 3-isobutyl-1-methylxanthine was added at a concentration of 0.6 mM. Test peptides were diluted in EBSS with above additions and 10% DMSO; 0.1 vol of compounds added to 0.9 vol of cells. After room temperature incubation for 40 min., cells are lysed by incubation at 100° C. for 5 min. to release accumulated cAMP. cAMP is measured in an aliquot of the cell lysate with the Amersham (Arlington Heights, Ill.) cAMP detection assay (RPA556).
Previous studies (Mountjoy, et al., 1992, Science 257:1248-1251 [see also U.S. Pat. No. 5,532,347]; Chhajlani and Wikberg, 1992, FEBS Letters 309:417-420) has documented that activation of the MC-1RA isoform by melanocortin agonists results in an elevation of intracellular cAMP production through the coupling of G-proteins to activation of membrane-bound adenylate cyclase.

Molecule	approximate rank order of potency in eliciting the cAMP response
MT-II	MT-II>NDP-MSH>SHU-9119>αMSH>βMSH>γMSH
NDP-αMSH	MT-II>NDP-MSH>SHU-9119>αMSH>βMSH>γMSH
αMSH	MT-II>NDP-MSH>SHU-9119>αMSH>βMSH>γMSH
βMSH: β-melanocyte stimulating hormone, melanocortin peptide derived from the POMC gene	MT-II>NDP-MSH>SHU-9119>αMSH>βMSH>γMSH

same assay, conditions: maximum agonist concentration, compared to background response in sham-transfected COS-7 cells

Molecule	rise in intracellular cAMP formation [fold]
MT-II	~3
NDP-αMSH	~3
SHU-9119	~3
αMSH	~3
βMSH: β-melanocyte stimulating hormone, melanocortin peptide derived from the POMC gene	~3
